Measured values taken from the supplement of paper PMC9170038.

How the values were obtained:
[1] = system: MS2 coat protein; assay: apparent KD of MS2 coat protein, switch ON state; designed switch direction (-1 OFF switch, 1 ON switch): 1; higher = weaker reporter binding; details: FMN input: 0 or 200 uM; Eterna round: R93 (includes R88 designs)
Summary of the method: (§1)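 Binding of SNAP-549-labelled MS2 coat protein was measured on designed RNA switches transcribed on-chip from Illumina sequencing clusters. The protein rose in twofold steps from 0.7 or 1.5 nM to 3 µM, with 0.8–1.5 h per step early on and 10–20 min per step later, in 100 mM Tris-HCl pH 7.5, 80 mM KCl, 4 mM MgCl2, without or with constant ligand. Each design's apparent KD is the median of fits to its normalised cluster binding curves.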

[2] = system: MS2 coat protein; assay: apparent KD of MS2 coat protein, switch OFF state (with FMN for OFF switches, without FMN for ON switches); designed switch direction (-1 OFF switch, 1 ON switch): 1; higher = weaker reporter binding; details: FMN input: 0 or 200 uM; Eterna round: R93 (includes R88 designs)
Summary of the method: as §1

Row | Sequence | apparent KD of MS2 coat protein [1] | apparent KD of MS2 coat protein [2]
1 | AAGAUACAUGAGGAUCACCCAUGUCGAGAGAGACGAGGAUAUCUGAAUCGAUUAGAUUACGGAGAAGGCGUGAAAA [LROPPY Same State 1 - v07_deltaG=1.9] | 0.0194 µM | 0.0343 µM
2 | GUAGACAUAGUUCAGGAUAUAGGAAUAGUCACAUGAGGAUCACCCAUGUGCAUUUAUAUGCGCACUUAGAAGGGAGGUAGUUAAC [Mat - Same state - Malcolm Mod - D121] | 0.0263 µM | 0.025 µM
3 | AACAAUCUAUCUGAGGAUAUCAUGUCAAAGACAUGAGGAUCACCCAUGUGCAGGAAAACUGCAUAUGAGAAGGCAGAUAGAUUGA [SS2 :P - 599] | 0.217 µM | 0.13 µM
4 | AAUAAACAUGAGGAUCACCCAUGUAGAAACAUGGGAGGAUAUACAAAGACGAAAGUCAAAGUAGAAGGCCUAAUAA [Mat - Same State 1 - Mod - D167] | 0.0927 µM | 0.0424 µM
5 | AAUAAUUAUAUCGAGGAUAUCGGUAAUAAGACAUGAGGAUCACCCAUGUAAUAAGGUUAAAUAAACGAGAAGGCGAAGGGUGAAA [JR_SS002_Sub006] | 0.0809 µM | 0.0492 µM
6 | AAAUAACAUGAGGAUCACCCAUGUCAAAUAAAUCGAGGAUAUGGGCCCGAGUUCCGGGAGCCAGAAGGCGAAAAGA [Ceusrete] | 0.0289 µM | 0.0517 µM
7 | UGUAGGAAGAGAGAGGAUAUCCAAAGGAAAACAUGAGGAUCACCCAUGUAAAAGGUAGGAAAUUGGGAGAAGGCUCAAGAGAGAG [salish99-ss2-082] | 0.029 µM | 0.0527 µM
8 | CGAAAGGAGAGAGAGGAUAUCCAAAGGAAAACAUGAGGAUCACCCAUGUAGAAGGUAGGAGAUUGGGAGAAGGCUCAAGAGAGAA [salish99-ss2-146] | 0.0191 µM | 0.025 µM
9 | AAAAUAAAAUAAAAGGAUAUAAAAUAAAAAACAUGAGGAUCACCCAUGUAAAAACAUGGGUGAAAAAAGAAGGAAAAAUAAAAAA [SS2: 70 No MS2] | 0.0367 µM | 0.00174 µM
10 | AAAAAACAUGAGGAUCACCCAUGUCUUCGGACGUGAGGAUAUGUACAGACUUCGGUCUGUACAGAAGGCAUGAAAA [SS1 - 1058] | 0.176 µM | 0.381 µM
11 | AGAAAGAAAAGAGAGGAUAUCUAAAAGAAAACAUGAGGAUCACCCAUGUAAAAGAAAAGAAAAUGGGAGAAGGCUCAUGAGAAAG [JL Skelter Mod 7 In the Red] | 0.101 µM | 0.0597 µM
12 | AACUAACAUGAGGAUCACCCAUGUAUUCAAACAUGAGGAUAUAUAACACAUCAUCGACAGAUAGAAGGCAUAAAUA [JR_SS001_Sub1205] | 0.0896 µM | 0.0785 µM
13 | AACAGACAUGAGGAUCACCCAUGUAGAAUUAUGGGAGGAUAUACAAAGACGAGAGUCAGAGUAGAAGGCCUAGGAC [salish99-ss1-163] | 0.02 µM | 0.0712 µM
14 | AAAUAAAUAAGAGAGGAUAUGUCAGAGAAAACAUGAGGAUCACCCAUGUAAUAAUAAAAAGGGUGACAGAAGGCUCAAAACAAAC [Hyphema modified] | 0.0323 µM | 0.0585 µM
15 | AGAAAACAUGAGGAUCACCCAUGUAGAAAUAUGGGAGGAUAUACGAAGACGAAAGUCGAAGUAGAAGGCCUAAAGA [Mat - Same State 1 - Meechl mod - D126] | 0.0232 µM | 0.0508 µM
16 | GAAAAACAUGAGGAUCACCCAUGUAGAAAUAUGGGAGGAUAUACAAAGACGAAAGUCAAAGUAGAAGGCCUAAAAG [Mat - Same State 1 - Rerun of Eli mod - D1] | 0.0239 µM | 0.0693 µM
17 | AUAAUAUUAAGCAAGGAUAUACUAAAGUAAACAUGAGGAUCACCCAUGUGAAAAAAAAAACUCAUGUAGAAGGUGCAUAAAUAAA [moonwalk 11] | 0.0239 µM | 0.05 µM
18 | ACAAGACAUGAGGAUCACCCAUGUAAAGAAAACGCAGGAUAUGCAAAAAAAUUCAUGGGUGCAGAAGGGCGAAAAA [Default title] | 0.153 µM | 0.0342 µM
19 | ACGAGGAAGAGAGAGGAUAUCCAAAGGAAAACAUGAGGAUCACCCAUGUAAAAGGUAGGAAAUUGGGAGAAGGCUCAAGAGAGAG [salish99-ss2-069] | 0.0324 µM | 0.0346 µM
20 | GAAAAACAUGAGGAUCACCCAUGUAGAAAUAUGGGAGGAUAUACAAAGACGAAAGUCAAAGUAGAAGGCCUAAAAG [Mat - Mod of Eli] | 0.0239 µM | 0.0693 µM
21 | AAAGACAUAGUUCAGGAUAUGGUAAUAGUCACAUGAGGAUCACCCAUGUUCUUUUAUAAGAACGAUCAGAAGGGAGGUAAAAAAA [SameState2 Malc#14] | 0.151 µM | 0.282 µM
22 | AAAAGACAUGAGGAUCACCCAUGUAAAAACAUAGGAGGAUAUGUCUGGAAACCAGACUGGACAGAAGGCCUUUGUC [SS1 - 63] | 0.0248 µM | 0.0294 µM

Row | Sequence | apparent KD of MS2 coat protein [1] | apparent KD of MS2 coat protein [2]
23 | UAUAGACAUGAGGAUCACCCAUGUAGAAUUAUGGGAGGAUAUACAAAGACGAGAGUCAGAGUAGAAGGCCUAGGAC [salish99-ss1-155] | 0.0226 µM | 0.0496 µM
24 | AGGAAACAUGAGGAUCACCCAUGUAAAAAUAUGGGAGGAUAUACGAAGACGAAAGUAAAAGUAGAAGGCCUAAAAG [Garnet 15] | 0.0318 µM | 0.108 µM
25 | AAACCACAUGAGGAUCACCCAUGUAAAAAUAACGCAGGAUAUGGAAACACGAAAGUGAAACCAGAAGGGUGAAAAG [77%, Mat - Mod of Eli, 15] | 0.0245 µM | 0.033 µM
26 | AAUCCAAAUAGUUAGGAUAUGGGAAUAAAAACAUGAGGAUCACCCAUGUAAUUGAAACAAGUUAACCAGAAGGGACAGGGUGAAA [JR_SS002_Sub210] | 0.0675 µM | 0.0166 µM
27 | AGGAAACAUGAGGAUCACCCAUGUAAAAAAUAGGGAGGAUAUACUAGAAGAAACAAAAUAGUAGAAGGCUCAAAAA [75%, Ex sub1, 25] | 0.0129 µM | 0.03 µM
28 | AAUAUAUUAAGUGAGGAUAUCAAAGAAAAAACAUGAGGAUCACCCAUGUGGGAAACCUGGUCGGGUGAGAAGGCACUUAAUAUAU [Samwise Clockwise 28 - Jieux - Same State 2] | 0.0313 µM | 0.314 µM
29 | AAAAAACAUGAGGAUCACCCAUGUCGAAAGACAUGAGGAUAUGUACAGACUUCGGUCUGUACAGAAGGCAUGUAAA [SS1 - 1016] | 0.104 µM | 0.813 µM
30 | AAAUAACAUGAGGAUCACCCAUGUUGCAACGGUUGAGGAUAUGUGGGUGAAAAUAGCAUGGCAGAAGGCGAGUGUA [SameState1 Malc#27] | 0.0581 µM | 0.0319 µM
31 | AAAUGACAUGAGGAUCACCCAUGUCCACCAAACGGAGGAUAUUGGGCGGCAAAACGUUGUUAAGAAGGCCGAAAAA [SS1-1.1] | 0.06 µM | 0.028 µM
32 | UUACGUACGUAUGAGGAUAUCCAUAAUAAGACAUGAGGAUCACCCAUGUAAACAAAACAAUAAUGGGAGAAGGCAUACGUACGAA [Mat - Same state - Malcolm Mod - D135] | 0.0232 µM | 0.0473 µM
33 | GAAAAACAUGAGGAUCACCCAUGUAGAAAUAUGGGAGGAUAUACAAAGACGAAAGUCAAAGUAGAAGGCCUAAGAG [Garnet 22] | 0.0318 µM | 0.0826 µM
34 | AGAAAUAAAAGAGAGGAUAUCCAAAAGAAAACAUGAGGAUCACCCAUGUAAAAGAAAAUAAAAUGGGAGAAGGCUCAUAUUAAAG [JL Skelter 2 mod 3] | 0.0449 µM | 0.146 µM
35 | AGGAAACAUGAGGAUCACCCAUGUAAAAAAUAGGGAGGAUAUGGAAACACGAAAGUGAAACCAGAAGGCUCAAAAA [77%, Mat - Mod of Eli, 23] | 0.0138 µM | 0.0182 µM
36 | UGGAGACAUGAGGAUCACCCAUGUGAGAAGAGGCGAGGAUAUCGAAAGAAAGAAGAGAAACGAGAAGGCGCGAGAA [salish99-SS1-033] | 0.013 µM | 0.0367 µM
37 | AAUAUAUUAUUUAAGGAUAUCAUAGGAAACACAUGAGGAUCACCCAUGUGGGAAACUUGGUCGGGUGAGAAGGUGGAUAAUAUAU [Samwise Clockwise 36 - Jieux - Same State 2] | 0.0174 µM | 0.0246 µM
38 | AUAAAACAUGAGGAUCACCCAUGUAGCUAAAGCACAGGAUAUAGGAGUCCGAGCAGACAUCUAGAAGGGUGGAAAA [Veeslelein] | 0.0575 µM | 0.0886 µM
39 | UAAAAACAUGAGGAUCACCCAUGUGAGAACAUGGGAGGAUAUACAAGGACGAAAGUCAAGGUAGAAGGCCUAAAAU [Mat - Same State 1 - Mod - D175] | 0.16 µM | 0.0293 µM
40 | CGUGAACAUGAGGAUCACCCAUGUAGCGGGAGACAAGGAUAUGGGAGGCGAAAUCGCGGAUCAGAAGGUGUAAGCG [Zace] | 0.0164 µM | 0.0165 µM
41 | GGCUGCGAUGUGAAGGAUAUCCGCGACUGGACAUGAGGAUCACCCAUGUAUGCUUGGAACAUGCCGGAGAAGGUCACGAAUGAUU [JR_SS002_Sub1216] | 0.0187 µM | 0.0302 µM
42 | AAAGACAUAGUGCAGGAUAUGGUAAUAGUCACAUGAGGAUCACCCAUGUUCUUUUAUAAGAACGAUCAGAAGGGCGGUAAAAAAA [SameState2 Malc#13] | 0.359 µM | 0.666 µM
43 | AAAAAACAUGAGGAUCACCCAUGUCUUUUGACAUGAGGAUAUGUACAGACUUCGGUCUGUACAGAAGGCAUGUAAA [SS1 - 1028] | 0.0311 µM | 0.397 µM
